{"source": "patent US20230203202A1", "about": "(DRAGONFLY THERAPEUTICS, published 2023)", "binders": {"B1": {"name": "AB1310/AB1783-TriNKET® (bispecific antibody, human IgG1, kappa)", "chain": "DIQLTQSPSSLSASVGDRVTITCRASQSVTTSNYNYMHWFQQKPGKAPKLLIKFASNLESGVPSRFSGSGSGTDFTLTISSLQPEDFATYYCQHSWEIPWTFGCGTKVEIKGGGGSGGGGSGGGGSGGGGSEVQLVESGGGLVKPGGSLRLSCAASRFTFSDFGMHWVRQAPGKCLEWVSYISSGSSTIYYADSVKGRFTISRDNAKNSLYLQMNSLRAEDTAVYYCASSQSYYRGTLDYWGQGTTVTVSSASDKTHTCPPCPAPELLGGPSVFLFPPKPKDTLMISRTPEVTCVVVDVSHEDPEVKFNWYVDGVEVHNAKTKPREEQYNSTYRVVSVLTVLHQDWLNGKEYKCKVSNKALPAPIEKTISKAKGQPREPRVYTLPPCRDELTKNQVSLTCLVKGFYPSDIAVEWESNGQPENNYKTTPPVLVSDGSFTLYSKLTVDKSRWQQGNVFSCSVMHEALHNHYTQKSLSLSPG", "heavy": "EVQLVESGGGLVKPGGSLRLSCAASGFTFSSYSMNWVRQAPGKGLEWVSSISSSSSYIYYADSVKGRFTISRDNAKNSLYLQMNSLRAEDTAVYYCARGAPIGAAAGWFDPWGQGTLVTVSSASTKGPSVFPLAPSSKSTSGGTAALGCLVKDYFPEPVTVSWNSGALTSGVHTFPAVLQSSGLYSLSSVVTVPSSSLGTQTYICNVNHKPSNTKVDKKVEPKSCDKTHTCPPCPAPELLGGPSVFLFPPKPKDTLMISRTPEVTCVVVDVSHEDPEVKFNWYVDGVEVHNAKTKPREEQYNSTYRVVSVLTVLHQDWLNGKEYKCKVSNKALPAPIEKTISKAKGQPREPQVCTLPPSRDELTENQVSLTCLVKGFYPSDIAVEWESNGQPENNYKTTPPVLDSDGSFFLYSWLTVDKSRWQQGNVFSCSVMHEALHNHYTQKSLSLSPG", "light": "DIQMTQSPSSVSASVGDRVTITCRASQGISSWLAWYQQKPGKAPKLLIYAASSLQSGVPSRFSGSGSGTDFTLTISSLQPEDFATYYCQQGVSFPRTFGGGTKVEIKRTVAAPSVFIFPPSDEQLKSGTASVVCLLNNFYPREAKVQWKVDNALQSGNSQESVTEQDSKDSTYSLSSTLTLSKADYEKHKVYACEVTHQGLSSPVTKSFNRGEC", "notes": "also called AB1310-TriNKET®; AB1783 10F10 F3′ LH H(T62S) CHO opt"}}, "key": {"[1]": {"target": "T1, human 5T4 (SPR and epitope mapping, construct not stated) (human, UniProt Q13641 32-355, limits assumed)", "T1 construct": "also called h5T4", "T1 sequence (looked up)": "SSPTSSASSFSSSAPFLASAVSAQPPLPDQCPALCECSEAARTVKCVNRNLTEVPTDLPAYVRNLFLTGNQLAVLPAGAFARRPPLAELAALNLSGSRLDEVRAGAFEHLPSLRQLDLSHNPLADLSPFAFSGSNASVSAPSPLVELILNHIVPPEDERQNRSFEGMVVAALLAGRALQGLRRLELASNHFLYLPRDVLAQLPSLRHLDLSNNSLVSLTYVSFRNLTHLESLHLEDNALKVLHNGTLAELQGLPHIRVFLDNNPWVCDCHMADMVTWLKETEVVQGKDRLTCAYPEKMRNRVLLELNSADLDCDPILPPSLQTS", "experiment": "SPR", "protocol": "(§1) Briefly, SPR was performed using a Biacore 8K instrument at physiological temperature of 37° C. Briefly, human Fc specific antibodies were covalently immobilized at a density of about 8000-10000 resonance units (RU) on carboxy methyl dextran matrix of a CM5 biosensor chip to create an anti-hFc IgG chip. Samples were injected on the anti-hFc IgG chip at a flow rate of 10 μL/min for 60 seconds. Protein was serially diluted (300 nM-0.14 nM) in three-fold dilutions with running buffer and injected at a flow rate of 30 μl/min over the captured test articles. Association was monitored for 240-300 seconds, and dissociation was monitored for 300-900 seconds. Surfaces were regenerated between cycles with three pulses of 10 mM glycine-HCl (pH 1.7) injected for 20 seconds at 100 μL/min."}, "cynomolgus 5T4": {"target": "T2, cynomolgus 5T4 (cynomolgus monkey, UniProt Q4R8Y9 32-355, limits assumed)", "T2 construct": "also called Cynomolgus monkey 5T4", "T2 sequence (looked up)": "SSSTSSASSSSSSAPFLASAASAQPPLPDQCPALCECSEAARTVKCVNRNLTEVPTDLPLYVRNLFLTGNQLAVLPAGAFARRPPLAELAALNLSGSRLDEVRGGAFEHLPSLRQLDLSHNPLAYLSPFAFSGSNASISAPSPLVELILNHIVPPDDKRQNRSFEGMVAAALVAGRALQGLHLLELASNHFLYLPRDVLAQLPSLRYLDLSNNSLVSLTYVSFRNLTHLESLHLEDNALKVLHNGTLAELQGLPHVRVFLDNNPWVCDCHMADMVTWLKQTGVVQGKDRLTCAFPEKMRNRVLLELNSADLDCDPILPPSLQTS", "experiment": "SPR", "protocol": "as §1"}, "[2]": {"target": "T3, human 5T4 on the cell surface (human, UniProt Q13641 32-420)", "T3 construct": "whole, on cells; also called h5T4; TPBG", "T3 sequence (looked up)": "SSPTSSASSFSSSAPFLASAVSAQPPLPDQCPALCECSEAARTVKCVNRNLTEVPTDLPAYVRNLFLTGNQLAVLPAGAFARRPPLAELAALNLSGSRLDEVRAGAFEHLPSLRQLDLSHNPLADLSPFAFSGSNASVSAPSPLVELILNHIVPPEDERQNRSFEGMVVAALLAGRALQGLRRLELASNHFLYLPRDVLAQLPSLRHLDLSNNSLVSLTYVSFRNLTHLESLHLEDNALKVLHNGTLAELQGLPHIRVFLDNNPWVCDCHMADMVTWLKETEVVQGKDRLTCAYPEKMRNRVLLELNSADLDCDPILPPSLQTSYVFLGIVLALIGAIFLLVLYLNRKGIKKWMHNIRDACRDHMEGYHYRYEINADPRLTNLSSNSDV", "experiment": "flow cytometry on HCT116 cells (14,000 5T4 per cell)"}, "[3]": {"target": "T3, human 5T4 on the cell surface", "experiment": "flow cytometry on BT474 cells (20,000 5T4 per cell)"}, "[4]": {"target": "T3, human 5T4 on the cell surface", "experiment": "cell-based or functional assay"}, "[5]": {"target": "T1, human 5T4 (SPR and epitope mapping, …)", "experiment": "SPR, h5T4 binding; sample stressed in acetate pH 4, 7 days 40 °C"}}, "data": [{"binder": "B1", "values": [{"measurement": "Kd", "setting": "[1]", "result": 6.2, "unit": "nM"}, {"measurement": "Kd", "setting": "cynomolgus 5T4", "result": 8.3, "unit": "nM"}, {"measurement": "EC50", "setting": "[2]", "result": 2.1, "unit": "nM"}, {"measurement": "EC50", "setting": "[3]", "result": 3.7, "unit": "nM"}, {"measurement": "ADCP of KYSE-30 cells by M0 macrophages, EC50", "setting": "[4]", "result": 0.089, "unit": "nM"}, {"measurement": "ADCP of NCI-H292 cells by M0 macrophages, EC50", "setting": "[4]", "result": 0.15, "unit": "nM"}, {"measurement": "Kd", "setting": "[5]", "result": 7.6, "unit": "nM"}, {"measurement": "koff", "setting": "[5]", "result": 0.00091, "unit": "s⁻¹"}, {"measurement": "kon", "setting": "[5]", "result": 120000, "unit": "M⁻¹ s⁻¹"}]}]}
